Series [1] has as its system HeLa Kyoto. As to the kind of experiment: solubility in G1/S (NP-40 vs SDS abundance) (log2 ratio); higher = more soluble. The note with it: cell cycle stage: G1/S.
Series [2] deals with HeLa Kyoto. As to the kind of experiment: solubility change mitosis vs G1/S (difference of NP-40 vs SDS log2 ratios) (log2 ratio difference); higher = more soluble in mitosis.
Series [3] has as its system HeLa Kyoto. As to the kind of experiment: thermal stability score vs G1/S (z-score of summed log2 fold changes over temperatures); higher = more thermally stable than in G1/S.
The mark [4] stands for this setting: cell cycle stage: early G1 (4.5 h after nocodazole release).
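Wherever solubility change mitosis vs G1/S (difference of NP-40 vs SDS log2 ratios) is given: synchronized HeLa Kyoto cells (double thymidine block for G1/S, nocodazole release for mitosis), protein amounts in NP-40 versus SDS lysates quantified by mass spectrometry, three biological replicates.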
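Wherever solubility in G1/S (NP-40 vs SDS abundance) is given: HeLa Kyoto cells arrested at G1/S by double thymidine block, proteins quantified by TMT10plex mass spectrometry in mild NP-40 versus SDS extracts, three biological replicates.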
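Wherever thermal stability score vs G1/S (z-score of summed log2 fold changes over temperatures) is given: synchronized HeLa Kyoto cells, proteins quantified by TMT10plex mass spectrometry, three biological replicates, mitosis taken 0.5 h after nocodazole release, G1/S directly after double thymidine block.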

Take “MPPKTPRKTAATAAAAAAEPPAPPPPPPPEEDPEQDSGPEDLPLVRLEFEETEEPDFTALCQKLKIPDHVRERAWLTWEKVSSVDGVLGGYIQKKKELWGICIFIAAVDLDEMSFTFTELQKNIEISVHKFFNLLKEIDTSTKVDNAMSRLLKKYDVLFALFSKLERTCELIYLTQPSSSISTEINSALVLKVSWITFLLAKGEVLQMEDDLVISFQLMLCVLDYFIKLSPPMLLKEPYKTAVIPINGSPRTPRRGQNRSARIAKQLENDTRIIEVLCKEHECNIDEVKNVYFKNFIPFMNSLGLVTSNGLPEVENLSKRYEEIYLKNKDLDARLFLDHDKTLQTDSIDSFETQRTPRKSNLDEEVNVIPPHTPVRTVMNTIQQLMMILNSASDQPSENLISYFNNCTVNPKESILKRVKDIGYIFKEKFAKAVGQGCVEIGSQRYKLGVRLYYRVMESMLKSEEERLSIQNFSKLLNDNIFHMSLLACALEVVMATYSRSTSQNLDSGTDLSFPWILNVLNLKAFDFYKVIESFIKAEGNLTREMIKHLERCEHRIMESLAWLSDSPLFDLIKQSKDREGPTDHLESACPLNLPLQNNHTAADMYLSPVRSPKKKGSTTRVNSTANAETQATSAFQTQKPLKSTSLSLFYKKVYRLAYLRLNTLCERLLSEHPELEHIIWTLFQHTLQNEYELMRDRHLDQIMMCSMYGICKVKNIDLKFKIIVTAYKDLPHAVQETFKRVLIKEEEYDSIIVFYNSVFMQRLKTNILQYASTRPPTLSPIPHIPRSPYKFPSSPLRIPGGNIYISPLKSPYKISEGLPTPTKMTPRSRILVSIGESFGTSEKFQKINQMVCNSDRVLKRSAEGSNPPKPLKKLRFDIEGSDEADGSKHLPGESKFQQKLAEMTSTRTRMQKQKMNDSMDTSNKEEK [RB1]”: in the series with HeLa Kyoto [1], the “solubility in G1/S (log2)” value came out at 0.147. Besides, the “solubility change mitosis (log2)” value in the series on HeLa Kyoto [2] is -0.0546. The thermal stability score amounted to 0.441 in the series on HeLa Kyoto [3] (setting [4]) and 2.18 with HeLa Kyoto [3] (cell cycle stage: mitosis).

For the sequence “MLGPCMLLLLLLLGLRLQLSLGIIPVEEENPDFWNREAAEALGAAKKLQPAQTAAKNLIIFLGDGMGVSTVTAARILKGQKKDKLGPEIPLAMDRFPYVALSKTYNVDKHVPDSGATATAYLCGVKGNFQTIGLSAAARFNQCNTTRGNEVISVMNRAKKAGKSVGVVTTTRVQHASPAGTYAHTVNRNWYSDADVPASARQEGCQDIATQLISNMDIDVILGGGRKYMFRMGTPDPEYPDDYSQGGTRLDGKNLVQEWLAKRQGARYVWNRTELMQASLDPSVTHLMGLFEPGDMKYEIHRDSTLDPSLMEMTEAALRLLSRNPRGFFLFVEGGRIDHGHHESRAYRALTETIMFDDAIERAGQLTSEEDTLSLVTADHSHVFSFGGYPLRGSSIFGLAPGKARDRKAYTVLLYGNGPGYVLKDGARPDVTESESGSPEYRQQSAVPLDEETHAGEDVAVFARGPQAHLVHGVQEQTFIAHVMAFAACLEPYTACDLAPPAGTTDAAHPGRSVVPALLPLLAGTLLLLETATAP [ALPP]”, in the series on HeLa Kyoto [1], the “solubility in G1/S (log2)” value was -0.46. Also, the “solubility change mitosis (log2)” value with HeLa Kyoto [2] is -0.115. The thermal stability score with HeLa Kyoto [3] (setting [4]) is -3.03; with HeLa Kyoto [3] (cell cycle stage: mitosis), -2.91.

As to “MNLAEICDNAKKGREYALLGNYDSSMVYYQGVMQQIQRHCQSVRDPAIKGKWQQVRQELLEEYEQVKSIVSTLESFKIDKPPDFPVSCQDEPFRDPAVWPPPVPAEHRAPPQIRRPNREVRPLRKEMAGVGARGPVGRAHPISKSEKPSTSRDKDYRARGRDDKGRKNMQDGASDGEMPKFDGAGYDKDLVEALERDIVSRNPSIHWDDIADLEEAKKLLREAVVLPMWMPDFFKGIRRPWKGVLMVGPPGTGKTMLAKAVATECGTTFFNVSSSTLTSKYRGESEKLVRLLFEMARFYAPTTIFIDEIDSICSRRGTSDEHEASRRVKSELLIQMDGVGGALENDDPSKMVMVLAATNFPWDIDEALRRRLEKRIYIPLPTAKGRAELLKINLREVELDPDIQLEDIAEKIEGYSGADITNVCRDASLMAMRRRINGLSPEEIRALSKEELQMPVTKGDFELALKKIAKSVSAADLEKYEKWMVEFGSA [KATNAL1]”, the “solubility in G1/S (log2)” value in the series with HeLa Kyoto [1] amounted to 0.0559. In addition, in the series on HeLa Kyoto [2], the “solubility change mitosis (log2)” value amounted to 0.119. The thermal stability score with HeLa Kyoto [3] (setting [4]) was found to be 1.07; in the series on HeLa Kyoto [3] (cell cycle stage: mitosis), 0.457.

The record behind these values is the supplement of paper PMC5998384.
